Consider 41 sequences from the nanobody polyreactivity screen of Harvey et al. (2022).

This series is described as follows: yeast display, Sf9 membrane polyspecificity reagent, FACS + sequencing; frameworks hold sequencing errors. A digest of the protocol: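 Genes from sorted yeast were amplified by colony PCR, read by MiSeq 2 × 250 sequencing and filtered on CDR length. These cells carried a synthetic nanobody library in Saccharomyces cerevisiae BJ5465 and were sorted by FACS into low and high (top ~1%) gates on anti-HA and streptavidin fluorescence. Polyreactivity is labelled according to the gate of origin.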
Consider “QVQLVESGGGLVQAGGSLRLSCAASGRILTRNALGWYRQAPGKERELVAAISTSGGRTYYADSVKGRFTISRDNAKNTVYLEMNSLKPEDTAVYYCAAYSASYGGYDYWGQGTQVTVSS”, for which the “polyreactivity (PSR sort gate)” value was “high polyreactivity”. As to “QVQLVESGGGLVQAGGSLRLSCAASGRILVDYAMGWYRQAPGKERELVAAITSTGGTTYYADSVKGRFTISRDNAKNTVYLQMNSLKPEDTAVYYCAAKRQDSWGGTYGYWGQGTQVTVSS”, the “polyreactivity (PSR sort gate)” value was “low polyreactivity”. Consider “QVQLVESGGGLVQAGGSLRLSCAASGRILVYYAMGWYRQATGKERELVAAITASGASTYYADSVKGRFTISRDNAKKTVYLQMNSLKPEDTAVYYCKVLYPRKYWQVREYYWGQGTQVTVSS”, for which the “polyreactivity (PSR sort gate)” value is “high polyreactivity”. To “QVQLVESGGGLVQAGGSLRLSCAASGRILWFYAMGWYRQAPGKERELVAAITDSGGSTYYADSVKGRFTISRDNAKNTVYLQMNSLKPEDTAVYYCAADTYYEFQYYVILEYNYWGQGTQVTVSS” belongs “low polyreactivity”; to “QVQLVESGGGLVQAGGSLRLSCAASGRILYLNDMGWYRQAPGKERELGAAITRRAGSTSYADSVKGRFTISRDNAKNTFYLQMNSLKPEDTAVYYCAKATSRRGFYYWGQGTQVTVSS”, “high polyreactivity”; to “QVQLVESGGGLVQAGGSLRLSCAASGRILYNYAMGWYRQAPGKECELVAAISSGGSTNYADSVKGRFTISRDNAKNTVYFQMNSLKPEDTAVYYCAAYRGHSWRGLYRWSDYDFWGQGTQVTVSS”, “low polyreactivity”. “QVQLVESGGGLVQAGGSLRLSCAASGRILYPYAMGGYRQAPGKERELVAAITFIGGSTYYADSVKGRFTISRDNAKNTVYLQMNSLKPEDTAVYYCNAKPHRPSLLRWRIGNYWGQGTQVTVSS”: the “polyreactivity (PSR sort gate)” value is “high polyreactivity”.

For the sequence “QVQLVESGGGLVQAGGSLRLSCAASGRILYRYAMGWYRQAPGKERELVAAISRSGGDTYYADSVKGRFTISRDNAKNTVYLQMNSLKPEDTAVYYCAASFEGSGYRYDYWGQGTQVTVSS”, the “polyreactivity (PSR sort gate)” value was “low polyreactivity”. In the case of “QVQLVESGGGLVQAGGSLRLSCAASGRILYRYAMGWYRQAPGKERELVAAITWRGGTTYYADSVKGRFTISRDNAKNTVYLQMISLKPEDTAVYYCNSDWWRTLESDYWGQGTQVTVSS”, the “polyreactivity (PSR sort gate)” value is “low polyreactivity”. The same measure for “QVQLVESGGGLVQAGGSLRLSCAASGRILYRYDMGWYRQAPGKERELVAAISRRGGSTTYADSVKGRFTISRDNAKNTVYLQMNSLKPEDTAVYYCATDYKYAAPTVIESDYWGQGTEVTVSS”: “high polyreactivity”; for “QVQLVESGGGLVQAGGSLRLSCAASGRILYSYAMGWYRQEPGKERELVAAISSTGSTYYADSVKGRFTISRDNAKNTVYLQMISLKPEDTAVYYCAATFYPYQVHHYYYWGQGTQVTVSS”: “low polyreactivity”. Regarding “QVQLVESGGGLVQAGGSLRLSCAASGRILYSYTMGWYRQAPGKEREFVAAITRSGGGTYYADSVKGRFTISRDNAKNTVYLQMNSLKPEDTAVYYCAYYTYYLAYGYWGQGTQVTVSS”, the “polyreactivity (PSR sort gate)” value was “high polyreactivity”. To “QVQLVESGGGLVQAGGSLRLSCAASGRILYVYVMGWYRQAPGKERELVAAITTSGDSTYYADSVKGRFTISRDNAKNTVYLQMNRLKPEDTAVYYCNAEEHDYVAHMDYWGQGTQVTVSS” belongs “low polyreactivity”. The same measure for “QVQLVESGGGLVQAGGSLRLSCAASGRILYYSVMGWYRPAPGKERELVAAISSGGDTNYADSVKGRFTISRDNAKNSVYLQMNSLKPEDTAVYYCARGVDGILWTSEYDYWGQGTQVTVSS”: “low polyreactivity”. Take “QVQLVESGGGLVQAGGSLRLSCAASGRILYYYAMGWYRQAPGKERELVATITRTTGSTYYADSVKGRFTISRDNAKNTVYLQMNSLKPEDTAVYYCAARWGRWIRDNYWGQGTQVSVSS”: the “polyreactivity (PSR sort gate)” value is listed as “high polyreactivity”. To “QVQLVESGGGLVQAGGSLRLSCAASGRINLYNAMGWYRQAPRKEMELVAVISYRGGSTYYADSVKGRFTISRENAKNTVYLQMNSLKPDDTAVYYCNKDKSYSGTRYDYWGQGTQVTVSS” belongs “high polyreactivity”; to “QVQLVESGGGLVQAGGSLRLSCAASGRIQSVYAMGWYRQAPGKERELVAAIDYSGGSTNYADSVKGRFTISRDNGKNTVYLQMNSLKPEDTAVYYCNREGGAIAWRYLLEYLYSWGQGTQVTVSS”, “low polyreactivity”; to “QVQLVESGGGLVQAGGSLRLSCAASGRIQYNAMGWYSQAPGKEREFGAAISWSGGTTYYADSVKGRFTISRDTAKNTVYLQMNSLKPEDTAVYYCATPYTHWGQGTQVTVSS”, “high polyreactivity”. Take “QVQLVESGGGLVQAGGSLRLSCAASGRISGVNAMGWSRQAPGKERELVATISGSGGRTYYADSVKGRFTISRDNAKNTVYLQMNSLNPEDTGGYYCNSMVERGGYFSRRFDFWGQGSQVTVSS”: the “polyreactivity (PSR sort gate)” value is given as “low polyreactivity”. The same measure for “QVQLVESGGGLVQAGGSLRLSCAASGRISGYNAMGWYRPAPGKQRELVAVITGSGGTYYADSVKGRFTISRDNAKNTVYLQMNSLKPEDSAVYYCAAGLAIRTYYPRYDYWGQGTQVTVSS”: “low polyreactivity”; for “QVQLVESGGGLVQAGGSLRLSCAASGRISIIYAMGWYRQAPGKERELVARISGSGGSTNYADSVKGRFTISRDNAKNTVYLQMKSLKPEDTAVYYCAAVPWRIHKYYYWGQCTQVTVSS”: “high polyreactivity”; for “QVQLVESGGGLVQAGGSLRLSCAASGRISKIYAMGWYRQAPGKERELVAAINSGGSTNYADSVKGRFTISRDNAKNTVYLQLNSLKPEDTAVYYCAATFKSGMDYWGQGTQVTVSS”: “high polyreactivity”. To “QVQLVESGGGLVQAGGSLRLSCAASGRISLGYAMGWYRQAPGKERELVAAITRGGTTSYAHSVKGRFTISRDNAKNTVYLQMNSLKPEDTAVYYCAVPAGYFGKWTYYYWGQGTQVTVSS” belongs “high polyreactivity”. With “QVQLVESGGGLVQAGGSLRLSCAASGRISLHNTIGWYRQAPGKERELVAAINYSGGSTYYADTVKGRFTISRDNAKNTVYLQMNSLKPEDTEVYYCAADFYQSHFYRPRYDYWGQGTQVTVSS”, the “polyreactivity (PSR sort gate)” value was “low polyreactivity”. Take “QVQLVESGGGLVQAGGSLRLSCAASGRISNFYSMGWYIQAPGKERELVAANRSGGSTNYADSVKGRFTISRDNAKYTVYLQMNSLKPEDTAVYYCAAVTGASPTRMDYWGQGTQVTVSS”: the “polyreactivity (PSR sort gate)” value was “high polyreactivity”. Take “QVQLVESGGGLVQAGGSLRLSCAASGRISQYNAMGWYRQAPGKERELVATITRGGSTYYADSVKGRFTISRDNAKNTVYLQMNSLKPEDTAVYYCATDRYWWSGFDYWGQGTQVTVSS”: the “polyreactivity (PSR sort gate)” value was “high polyreactivity”. For the sequence “QVQLVESGGGLVQAGGSLRLSCAASGRISVFYAMGWYRQAPGKEMELGAAITRSGTTKYADSVKGRFTISRDNAKNTVYLQMNSLKPEDTAVYYCAARSVYYKFGYYYWGQGSQVTVSS”, the “polyreactivity (PSR sort gate)” value is listed as “high polyreactivity”. On to “QVQLVESGGGLVQAGGSLRLSCAASGRISVFYTRGWYRQAPGKERELVAVIRTSGGRTNYADSVKGRFTISRDNAKNTVYLQMNSLKPEDTAVYYCAARVVRYGYKYYYWGQGTQVTVSS”, for which the “polyreactivity (PSR sort gate)” value was “low polyreactivity”. The same measure for “QVQLVESGGGLVQAGGSLRLSCAASGRITGINAMGWYRPAPGKERELVAAITWRGGRKYYADSVKGRFTISRDNAKNTVYLQMNSLKPEDTAVYYCAAELQGAYYFAYYYWGQGTQVNVSS”: “high polyreactivity”; for “QVQLVESGGGLVQAGGSLRLSCAASGRIVDIYAMGWYRQAPGTERELVAAITWRGGSTYYADSVKGRFTISRDNAKNTVYLQMNSLKPEDTAVYYCAVDFFTPRGSYYWGQGTQVTVSS”: “low polyreactivity”; for “QVQLVESGGGLVQAGGSLRLSCAASGRIVFYAMGWYRQAPGKERELVAAITGSGGRTYYADSVKGRFTISRDNAKITVYLQMNSLKPEDTAVYYCAARKWRHGYQGDYWGQGTQVTVSS”: “high polyreactivity”. Turning to “QVQLVESGGGLVQAGGSLRLSCAASGRIVGFYGMGWYRQAPGKERELVARITVGGGSTYYADSVKGRFTISRDNAKNTGYLQMNSLKPEDTAVYYCNAVYARYGSQGYEYWGQGTQVTVSS”, the “polyreactivity (PSR sort gate)” value is given as “high polyreactivity”.

On to “QVQLVESGGGLVQAGGSLRLSCAASGRIVRFYGMGWYRQAPGKERELVAAITDGCGTNYADSVKGRFSISRDNAKNTVYLQMNSLKPEDTAVYYCAADSRFVWSGEYWGQGTQVTVSS”, for which the “polyreactivity (PSR sort gate)” value is reported as “low polyreactivity”. In the case of “QVQLVESGGGLVQAGGSLRLSCAASGRIVYVNVMGWYRQAPGKERELVAAINWSDGSTYYADSVKGRFTISRDNAKNTVYLQMNSLKPEETAVYYFNRRGPYGYKAWAIGTIGDLDYWGHGTQVTVSS”, the “polyreactivity (PSR sort gate)” value is given as “low polyreactivity”.

Turning to “QVQLVESGGGLVQAGGSLRLSCAASGRIWLYAMGWYRQAPGKERELVAAISWTDGRTRYADSVKGRFTISRDNAKNTVYLQMNRLKPEDTAVYYCAPVVDRGYRRVKYYYWGQGTQVSVSS”, the “polyreactivity (PSR sort gate)” value is given as “high polyreactivity”. In the case of “QVQLVESGGGLVQAGGSLRLSCAASGRIYAMGWYRQAPGKERELVAAISRGGSTYYADSVKGRFTISRDNAKNTVYLQMNSLKPEDTAVYYCARRYASTGYDYWGQCTQVTVSS”, the “polyreactivity (PSR sort gate)” value is “high polyreactivity”. To “QVQLVESGGGLVQAGGSLRLSCAASGRIYDRYDMVWYRQAPVKERELVAAISSGGSTYYADSVKGRFTISRDNAKNTVYLQMNSLKPEDTAVNNCAADRRSKYDYWGQGTQVTVSA” belongs “low polyreactivity”; to “QVQLVESGGGLVQAGGSLRLSCAASGRIYDYMGWYRQAPGKERELVAAITSSGVSTYYADSVKGRFTISRDNAKNTVYLQMNSLKPEDTAVYYCAAERVYIVWFTHEIFNYWGQGTQVTVSS”, “high polyreactivity”.

In the case of “QVQLVESGGGLVQAGGSLRLSCAASGRIYGKYAMGWSRQAPGKERELVASISYSGGSTYYADSVKGRFTISRDNAKNTVYLHMISLKPEDTAVYYCAARKWRYGRYVYWGQGTQVTVSS”, the “polyreactivity (PSR sort gate)” value is recorded as “high polyreactivity”. “QVQLVESGGGLVQAGGSLRLSCAASGRIYGVYALGWYRQAPGKERELVAAITSSGGSTYYADSVKGRFTISRDNAKNTVYLQMNSLKPEDTAVYYCAADNTFRDDYFLYYLFNYNYWGQGTQVTVSS”: the “polyreactivity (PSR sort gate)” value is recorded as “low polyreactivity”. “QVQLVESGGGLVQAGGSLRLSCAASGRIYKRNAMGWYRQAPGKERELVAAITGNVGSTYYADSVKGRFTISRDNAKNTVYLQMNSLKPEDTAVYYCAAETYPVWGVAFYYWGQGTQVTVSS”: the “polyreactivity (PSR sort gate)” value is listed as “high polyreactivity”.
